± gives the uncertainty stated by the source.
Experiment: amyloid nucleation score (Sup35N fusion, yeast selection) (log enrichment); library NNK1; higher = more nucleation; inactive = no reads after selection
Summary of the method: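 On medium lacking adenine and uracil, psi-negative yeast expressing peptides of 20 random codons fused to Sup35N were grown 7 days at 30°C after a 24-hour induction with 100 μM copper sulfate. Illumina sequencing of input and output plasmid inserts gave the reads, and sequences under 100 input reads were excluded. The nucleation score is the DiMSum log enrichment of output over input reads, centred on the mode score of non-aggregating sequences.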

| Substance | amyloid nucleation score |
| --- | --- |
| DGSSLSPDPSLVWLKDM | -0.823 ± 0.55 |
| HWLPHDVLSMWW | 1.29 ± 0.67 |
| LIDRHSFVRGRIRVSSVVVC | inactive |
| HLWLFAGYMLLLKPKLKVCT | -0.625 ± 0.41 |
| FVLRTFQVDNSRQDTTNVST | 0.309 ± 0.48 |
| TVHSLV | -0.276 ± 0.38 |
| GHLENPFDERASCWRITADG | 1.25 ± 0.74 |
| GNYTS | -0.894 ± 0.59 |
| IFTFQLLFRNSQRSMYSSVL | 0.651 ± 0.63 |
| DPYTHYVAMRINCYWEMCAL | -1.06 ± 0.93 |
| TSAVSSCDFRKRWCCSSFHW | 0.665 ± 0.24 |
| TYGEYRTYISYH | 0.389 ± 0.43 |
| CQNFDDI | 0.117 ± 0.9 |
| ERQLKEEY | 0.06 ± 0.33 |
| MSLPYVICQQDR | -0.794 ± 1.4 |
| IFRTIERTVSIFNRSSR | 0.222 ± 0.72 |
| LVRAIIANCAYFCQFRFSLG | 0.944 ± 0.69 |
| IMRNVQTDA | 0.383 ± 0.52 |
| LRSIRVPP | -0.005 ± 0.32 |
| SHQSDGNWQMVYWCLLVRFT | -0.709 ± 0.56 |
| MYGLLEDERTVCQWKMICVV | -0.157 ± 0.69 |
| IRLMRWGRCVGISVEGVC | 0.789 ± 0.46 |

| Substance | amyloid nucleation score |
| --- | --- |
| NDDVSVSVSWPDMEVRWK | -0.179 ± 0.29 |
| KDGFTSRAWPHMFKSLRSQL | 1.07 ± 0.63 |
| GTYFSGIVVVFLVGVLAR | -0.207 ± 0.49 |
| INRVSLCTVEAVLSHEDACG | -0.494 ± 0.32 |
| TLFPVRNTMMFLESYS | -0.742 ± 0.41 |
| NRNTRLMWNDTVWGIRAARY | -0.279 ± 0.85 |
| CFFILW | -0.066 ± 0.55 |
| GFVGFTGF | 0.308 ± 0.77 |
| ESVIFFSCTYSSMMVSWTSR | 0.382 ± 1.4 |
| MVDSVMD | -0.21 ± 0.79 |
| ILGKFFIDLSDI | -1.16 ± 0.43 |
| DMFCQAI | 0.773 ± 0.39 |
| FLPGQNAIFKTLLVCSTVKV | -0.675 ± 1.2 |
| DTSVFWVKIYIFGSISHWAG | 0.606 ± 1 |
| ERLFELKCPNFCAELGSDS | 0.24 ± 0.41 |
| TIVELFYDRSLR | 1.17 ± 0.33 |
| GVMRKNMNKAWFTRDIDSF | 0.752 ± 0.41 |
| LNVIVKDRGPCKSSSEIAVD | -1.35 ± 1.3 |
| RSLFLDCS | -0.475 ± 0.91 |
| HYSTEEGRVCGSVKQQKAWL | -0.296 ± 0.52 |
| GLFTVNDV | 0.374 ± 0.36 |
| VGSTLYHLRKDMSTLSPGMY | 0.012 ± 0.34 |

| Substance | amyloid nucleation score |
| --- | --- |
| QYVPNETVDI | 1.4 ± 0.25 |
| RVMVSGNAPSFVLNGGVSVR | 0.874 ± 0.62 |
| SSSGFNIFRLLV | -0.325 ± 0.25 |
| GWWGHGFALRSFVLIAHLDV | 0.06 ± 0.72 |
| LCALG | -0.434 ± 1.2 |
| FRRIFSWACPV | 0.352 ± 0.58 |
| MRKVYNEWLKTNYYKHMNRV | 0.452 ± 0.51 |
| GLRTLEPYRYVIIMVPGQVA | -0.164 ± 0.68 |
| LEGHNCADQLLSFLTSSYSL | 1.34 ± 0.44 |
| RSNEIVEFGSPWYKMTKGMR | 0.44 ± 0.31 |
| CWFTAVLARPLWNSSVSSVA | -0.369 ± 0.34 |
| AVSAFSTVKSSFGDGGIGFF | -0.398 ± 0.34 |
| GSCGYSTVVDVVCYLDLLLI | 0.131 ± 0.43 |
| RERIECDWTGLAFGDPKVSV | -0.646 ± 2.1 |
| PKDLIVTTLHAWCDRHSYT | -0.49 ± 0.76 |
| RFNREFMSSSVLRSWNDGYG | -0.635 ± 0.62 |
| WNQIAYNYRMLMLYFVTHYW | 0.327 ± 0.5 |
| FRLRL | 0.019 ± 0.83 |
| WNISSTFGYGNHWLG | 0.816 ± 0.52 |
| TLQTTWLKNLGDLSSSREAS | -0.184 ± 0.41 |
| SVKYMVIDFQLKRMEVVINK | 0.354 ± 0.36 |
| LDFKDSGLYLPYKGNYGSV | 0.378 ± 0.68 |

| Substance | amyloid nucleation score |
| --- | --- |
| IDKMELFSRSKHKWYMASAI | -0.267 ± 0.79 |
| SSLVATPLGLELIKGRSSSL | 0.57 ± 1.2 |
| GRGQWQPAFTKLPYLILSVV | -0.152 ± 0.94 |
| SGVVE | -0.433 ± 0.39 |
| HRILVGGFRSCVMT | 0.311 ± 0.32 |
| DDNGPTYR | inactive |
| SSYMLWFAIFVRNLNPLVFW | -0.871 ± 0.37 |
| SAHITDVLHKMWRNNTTTWY | 1.15 ± 0.55 |
| MSSHVTHAS | 0.495 ± 1 |
| EFFRVMPGNT | 3.68 ± 0.13 |
| AFMGPWEPFLVHFTRRPSPY | -0.856 ± 2.4 |
| NRYPTLFWCVRNRVWECLRV | 0.392 ± 0.46 |
| KWKVR | -0.068 ± 0.38 |
| TYNEDEVPCLMLASDVRFSS | 0.372 ± 0.64 |
| HRAWAQVFFPELARSLVRSQ | 0.216 ± 0.6 |
| ICQTFASCEFDGCLLH | 3.47 ± 0.12 |
| MLLIVPLFDSEVVWPGVVWT | -0.235 ± 0.66 |
| LSFWLCSWSMWCKSQLGNDR | 2.13 ± 0.13 |
| IHGSRCVPKSQD | 0.201 ± 0.38 |
| VQISQETFYNWLFVPAVSVP | -0.282 ± 0.38 |
| IMYNCRYWSGVTLHYSVVQH | 1.89 ± 0.16 |
